# In publication PMC8602290, “G3BP1 inhibits Cul3^SPOP to amplify AR signaling and promote prostate cancer” (Nature Communications, 2021):
# T1: Myc-DEK protein (affinity-purified) (UniProt P35659 1-375)
# T1 construct: DEK, recombinant Myc-tagged protein
# T1 sequence (looked up): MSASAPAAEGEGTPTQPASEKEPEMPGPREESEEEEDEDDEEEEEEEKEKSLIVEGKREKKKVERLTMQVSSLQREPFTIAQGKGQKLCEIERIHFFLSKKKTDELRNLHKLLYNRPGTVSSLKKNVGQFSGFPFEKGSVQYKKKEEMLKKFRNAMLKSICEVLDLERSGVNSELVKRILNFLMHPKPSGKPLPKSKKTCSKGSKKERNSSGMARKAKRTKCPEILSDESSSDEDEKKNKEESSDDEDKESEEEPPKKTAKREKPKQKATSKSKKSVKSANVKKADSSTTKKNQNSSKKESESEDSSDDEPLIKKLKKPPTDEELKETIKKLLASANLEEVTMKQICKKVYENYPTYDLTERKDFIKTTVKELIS
# Assays:
# [1] = biological target: T2, Speckle-type POZ protein (SPOP), endogenous in 22Rv1 cells (human (endogenous in 22Rv1), UniProt O43791 1-374); assay: proximity ligation; 22Rv1 cells transfected with FLAG-G3BP1 constructs; Duolink II kit, antibodies against FLAG-M2 and SPOP (endogenous); percentage of cells with signal; settings: partners not purified
# T2 construct: SPOP, endogenous protein of human 22Rv1 prostate cancer cells; also called endogenous SPOP; source: endogenous, 22Rv1 lysate or cells
# [2] = biological target: T3, His G3BP1 protein (affinity-purified) (UniProt Q13283 1-466); assay: co-IP; in vitro binding assay with affinity-purified proteins: 4 ug His-SPOP with 0.125, 0.25 or 0.75 ug His G3BP1 in 1 ml pulldown buffer, 4 C, 60 min, then 0.56 ug Myc-DEK; IP with anti-SPOP and protein G agarose; wash 50 mM Tris pH 7.5, 200 mM NaCl; settings: both partners purified
# T3 construct: G3BP1, recombinant His-tagged protein
# [3] = biological target: T1, Myc-DEK protein (affinity-purified); assay: as above; settings: both partners purified
percentage of cells with PLA positive signal [1] [%],binding result [2],binding result [3],Binder
70,–,–,"FLAG-G3BP1^RRM (22Rv1) (domain or fragment, UniProt Q13283 338-466, looked up, also called FLAG-RRM; G3BP1^RRM-RGG; source: 22Rv1, transfected, in cells or lysate) DSHQLFIGNLPHEVDKSELKDFFQSYGNVVELRINSGGKLPNFGFVVFDDSEPVQKVLSNRPIMFRGEVRLNVEEKKTRAAREGDRRDNRLRGPGGPRGGLGGGMRGPPRGGMVQKPGFGVGRGLAPRQ"
–,binds,binds,"His-SPOP protein (affinity-purified) (natural protein, UniProt O43791 1-374, looked up, SPOP, recombinant His-tagged protein) MSRVPSPPPPAEMSSGPVAESWCYTQIKVVKFSYMWTINNFSFCREEMGEVIKSSTFSSGANDKLKWCLRVNPKGLDEESKDYLSLYLLLVSCPKSEVRAKFKFSILNAKGEETKAMESQRAYRFVQGKDWGFKKFIRRDFLLDEANGLLPDDKLTLFCEVSVVQDSVNISGQNTMNMVKVPECRLADELGGLWENSRFTDCCLCVAGQEFQAHKAILAARSPVFSAMFEHEMEESKKNRVEINDVEPEVFKEMMCFIYTGKAPNLDKMADDLLAAADKYALERLKVMCEDALCSNLSVENAAEILILADLHSADQLKTQAVDFINYHASDVLETSGWKSMVVSHPHLVAEAYRSLASAQCPFLGPPRKRLKQS"
